What all share (test): ELISA on plates coated with the antigen; control serum
(In general: An ELISA detects its analyte on a solid surface through an enzyme-linked reagent.)

For one experiment, the target named is native α-lactalbumin.
For experiment [1], the target named is α-lactalbumin stabilized denatured isomer "a".
Experiment [2] has as its target α-lactalbumin stabilized denatured isomer "c".
For experiment [3], the target named is α-lactalbumin stabilized denatured isomer "d".

On to “normal mouse serum (control) (polyclonal serum or antibody)”, for which the O.D. was 0.06 O.D in the experiment with native α-lactalbumin, 0.06 O.D in experiment [1], 0.056 O.D in experiment [2] and 0.05 O.D in experiment [3].

Source of the values: patent US20060018918A1.
